Laboratory results as given in patent publication US20060121580A1.

Columns and labels:
[1] = biological target: SARS-CoV preparation (Frankfurt 1 strain); experiment: phage ELISA on coated SARS-CoV preparation, plate 2 (no phage antibody 0.211)
[2] = biological target: SARS-CoV preparation (Frankfurt 1 strain); experiment: phage ELISA on coated SARS-CoV preparation, plate 3 (no phage antibody 0.054)
[3] = biological target: SARS-CoV preparation (Frankfurt 1 strain); experiment: phage ELISA on coated SARS-CoV preparation, plate 4 (no phage antibody 0.051)

Binder | OD492 nm [2] | OD492 nm [3] | further results
SC03-023 (scFv) scFv: AMAQVQLQQWGAGLLKPSETLSLTCAVYGGSFSGFYWSWIRQPPGKGLEWIGEINHSGSTNYNPSLKSRVTISVDTSKNQFSLKLSSVTAADTAVYYCARRVEVVEYQLLRPRYKSWFDPWGQGTLVTVSSGTGGSGGTGSGTGGSTQSALTQPRSVSGSPGQSVTISCTGSSSTVGGYNYVSWYQQHPGKAPKLMIYDVSKRPSGVSNRFSGSKSGNTASLTISGLQAEDEADYYCSSYTSSSTYVFGTGTKVTVLGAA |  |  | OD492 nm [1]: 1.31 OD492 nm
SC03-036 (scFv) scFv: AMAEVQLVQSGTEVKKPGESLKISCKGSGYGFITYWIGWVRQMPGKGLEWMGIIYPGDSETRYSPSFQGQVTISADKSINTAYLQWSSLKASDTAIYYCAGGSGISTPMDVWGQGTTVTVSSGTGGSGGTGSGTGGSTDIQMTQSPDSLAVSLGERATINCKSSQSVLHSPNNKNYLAWYQQKPGQPPKLLIYWASTRESGVPDRFSGSGSGTDFTLTISSLQAEDVAVYYCQQYYSTNSFGQGTKLEIKRAA | 0.24 OD492 nm |  | 
SC03-055 (scFv) scFv: AMAQVQLQQWGAGLLKPSETLSLTCAVYGGSFSGFYWSWIRQPPGKGLEWIGEINHSGSTNYNPSLKSRVTISADTSKNQFSLKLSSVTAADTAVYYCARRVEVVEYQLLRPRYKSWFDPWGQGTLVTVSSGTGGSGGTGSGTGGSTQSVLTQPPSVSGAPGQRVSISCSGSGANGGTDPVSWYQKFPGTAPHLLIYDNNKRPSGIPDRFSGSKSGASATLDITGLQTGDEADYYCGAWDPSLSGYVFGTGTQLTVLSAA | 0.608 OD492 nm |  | 
SC03-034 (scFv) scFv: AMAEVQLVQSGAEVKKPGESLKISCKGSGYGFITYWIGWVRQMPGKGLEWMGIIYPGDSETRYSPSFQGQVTISADKSINTAYLQWSSLKASDTAIYYCAGGSGISTPMDVWGQGTTVTVSSGTGGSGGTGSGTGGSTDVVMTQSPDSLAVSLGERATINCKSSQSILNRSNNKNYLAWYQQKPGQPPKLLIYWASTRESGVPDRFSGSGSGTDFNLTISSLQAEDVAVYYCQQYNNWPLTFGGGTKVDIKRAA | 0.802 OD492 nm |  | 
SC03-025 (scFv) scFv: AMAEVQLVESGGGLVQPGGSLRLSCAASGFTFSSYAMHWVRQAPGKGLEYVSGISSNGGSTYYANSVKGRFTISRDNSKNTLYLQMGSLRAEDMAVYYCARTTNRAFDIWGQGTMVTVSSGTGGSGGTGSGTGGSTDIQLTQSPDSLAVSLGERATINCKSSQSVLYSSNNKNYLAWYQQKPGQPPKLLIYWASIRESGVPDRFSGSGSGTDFTLTISSLQAEDVAVYYCQQYYNIPYAFGQGTKLEIKRAA |  |  | OD492 nm [1]: 1.64 OD492 nm
SC03-043 (scFv) scFv: AMAQVQLVQSGGGLVQPGGSLRLSCAASGFTFSSYAMHWVRQAPGKGLEYVSGISSNGGSTYYANSVKGRFTISRDNSKNTLYLQMGSLRAEDMAVYYCARTTNRAFDIWGQGTMVTVSSGTGGSGGTGSGTGGSTDIQLTQSPDSLAVSLGERATINCKSSQSVLYRSNNKNYLAWYQQKPGQPPKLLIYWASTRESGVSERFSGSGSGTDFTLTISSLQAEDVAVYYCQQYYSTPYSFGQGTKLEIKRAA | 1.27 OD492 nm |  | 
SC03-044 (scFv) scFv: AMAEVQLVETGGGLVQPGGSLRLSCAASGFTFSSYAMHWVRQAPGKGLEYVSGISSNGGSTYYANSVKGRFTISRDNSKNTLYLQMGSLRAEDMAVYYCARTTNRAFDIWGQGTMVTVSSGTGGSGGTGSGTGGSTDIQMTQSPDSLAVSLGERATINCKSSQSVLYSSNNKNYLAWYQQKPGQPPKLLIYWASTRESGVPDRFRGSGSGTDFTLTISSLQAEDLAVYYCQQYYSTPYSFGQGTKLEIKRAA |  | 0.518 OD492 nm | 
SC03-057 (scFv) scFv: AMAQVQLVQSGAEVKKPGSSVKVSCKASGGTFSRYAISWVRQAPGQGLEWMGRINPILNLTNYAQKFQGRVTITADKSTSTAYMEMSSLRSEDTAIYYCASPDIVVAGHASPPHYTMDVWGQGTTVTVSSGTGGSGGTGSGTGGSTDIQMTQSPSSLSASVGDRVTITCRASQGIRNDLGWYQQKPGKAPNLLIYQASALQSGVPSRFSGSESGAEFTLTISSLHPDDFATYYCQQYHDFPITFGQGTRLEIKRAA | 1.19 OD492 nm |  | 
SC03-037 (scFv) scFv: AMAKVQLVQSGGGLIQPGGSLRLSCAASGFTVSSNYMSWVRQAPGKGLEWVSIVFSGGSTYYADSVKGRFTISRDNSKNTLYLQMNSLRAEDTAVYYCARDAHRGFGMDVWGQGTTVTVSSGTGGSGGTGSGTGGSTSSELTQDPAVSVALGQTVRITCQGDSLRSYYASWYQQKPGQAPVLVIYGKNNRPSGIPDRFSGSSSGNTASLTITGAQAEDEADYYCNGRDSSGNHWVFGGGTKLTVLGAA |  | 0.287 OD492 nm | 
SC03-038 (scFv) scFv: AMAEVQLVQSGGGLIQPGGSLRLSCAASGFTVSSNYMSWVRQAPGKGLEWVSIVFSGGSTYYADSVKGRFTISRDNSKNTLYLQMNSLRAEDTAVYYCARDAHRGFGMDVWGQGTTVTVSSGTGGSGGTGSGTGGSTSSELTQDPAVSVALGQTVRITCQGDSLRSYYASWYQQKPGQAPVLVIYGKNNRPSGIPDRFSGSSSGDTASLTITGAQAEDEADYYCNSRDSSGNHWVFGGGTKLTVLGAA |  | 0.314 OD492 nm | 
SC03-024 (scFv) scFv: AMAQVQLVESGSELKIPGASVKVSCKATGYTFTRYSLNWVRQAPGQGLEWVGWINTQTGNSNYGQAFSGRFVFSLDTSVSTAYLQISSLQAEDTATYYCARKSAGSNAFDIWGQGTMVTVSSGTGGSGGTGSGTGGSTQSVVTQPPSVSAAPGQKATISCSGSSSNIGNNYVSWYQQLPGTAPKLLIYDNNKRPSGIPNRFSGSKSGTSATLGITGLQTGDEADYYCGTWDSSLSAYVFGTGTKVTVLGAA |  |  | OD492 nm [1]: 0.235 OD492 nm
SC03-039 (scFv) scFv: AMAEVQLVESGGGLVQPGGSLRLSCAASGFTFSSYAMSWVRQAPGKGLEWVSVIYSGGTSTYYADSVKGRFTISRDNSKNTLYLQMNSLRAEDTAVYFCAKGSKWNDVGGGDYWGQGTLVTVSSGTGGSGGTGSGTGGSTNFMLTQPHSVSESPGKTVTISCAGSSGSIASNYVQWYQQRPGSAPTTVIYEDNQRPSGVPDRFSGSIDSSSNSASLTISGLKTEDEADYYCQSYDGYLWIFGGGTKLTVLGAA | 0.851 OD492 nm |  | 
SC03-046 (scFv) scFv: AMAEVQLVQSGGGLVQPGGSLRLSCAASGFTFSSYAMHWVRQAPGKGLEYVSGISSNGGSTYYANSVKGRFTISRDNSKNTLYLQMGSLRAEDMAVYYCARTTNRAFDIWGQGTMVTVSSGTGGSGGTGSGTGGSTDVVMTQSPDSLAVSLGERATINCKSSQSVLYSSNNKNYLAWYQQKPGQPPKLLIYWASTRESGVPDRFSGSGSGTDFSLTISSLQAEDVAVYYCQQYYSPPYTFGPGTKVEIKRAA | 1.9 OD492 nm |  | 
SC03-040 (scFv) scFv: AMAQVQLVQSGGGLVQPGGSLRLSCAASGFTFSSYAMHWVRQAPGKGLEYVSGISSNGGSTYYANSVKGRFTISRDNSKNTLYLQMGSLRAEDMAVYYCARTTNRAFDIWGQGTMVTVSSGTGGSGGTGSGTGGSTDIQMTQSPDSLAVSLGERATINCRSSQSVLYSSNNKNYLAWYQQKPGQPPKLLIYWASTRESGVPDRFSGSGSGTDFTLTISSLQAEDVAVYYCQQYYSSPYSFGQGTKLEIKRAA |  | 0.616 OD492 nm | 
SC03-054 (scFv) scFv: AMAEVQLVQSGGGVVQPGRSLRLSCAASGFTFSSYAMHWVRQAPGKGLEYVSGISSNGGSTYYANSVKGRFTISRDNSKNTLYLQMGSLRAEDMAVYYCARTTNRAFDIWGQGTMVTVSSGTGGSGGTGSGTGGSTDIQLTQSPDSLAVSLGERATINCKSSQSVLYSSNNKNYLAWYQQKPGQPPKLLIYWASTRESGVPDRFSGGGSGTDFTLTISSLQAEDVAVYYCQQYYSTPYSFGQGTKVEIKRAA |  | 0.428 OD492 nm | 
SC03-033 (scFv) scFv: AMAQVQLVQSGTEVKKPGESLKISCKGSGYGFITYWIGWVRQMPGKGLEWMGIIYPGDSETRYSPSFQGQVTISADKSINTAYLQWSSLKASDTAIYYCAGGSGISTPMDVWGQGTTVTVSSGTGGSGGTGSGTGGSTDVVMTQSPDSLAVSLGERATINCKTSHNIFSRSNNKDYLAWYQQKPGQPPRLLIYWASTRASGVPERFSGSGSGTDFSLTISSLQAEDVAVYYCQQYYSSPMYSFGQGTKVEIKRAA |  | 0.288 OD492 nm | 
SC03-031 (scFv) scFv: AMAQVQLVQSGADVKKPGSSVKVSCEASGGTFSSYAISWVRQAPGQGLEWMGRIIPILGITNYAQKFQGRVTITADKSTGTGNMELSSLRSEDTAVYYCARESGGGYDNHFDYWGQGTLVTVSSGTGGSGGTGSGTGGSTQSVLTQPPSASGTPGQRVTISCSGGSSNIGSNTVNWYQQLPGTAPKLVIYANNQRPSGVPDRFSASKSGTSASLAISGLQSEDEADYYCAAWDDSLTGGVFGGGTQLTVLSAA |  | 0.635 OD492 nm | 
SC03-051 (scFv) scFv: AMAQVQLVQSGTEVKKPGESLKISCKGSGYGFITYWIGWVRQMPGKGLEWMGIIYPGDSETRYSPSFQGQVTISADKSINTAYLQWSSLKASDTAIYYCAGGSGISTPMDVWGQGTTVTVSSGTGGSGGTGSGTGGSTDIQMTQSPDSLAVSLGERATINCKSGQSILYSSNDKNYLAWYQQKPGQPPKLLIYWASTRESGVPDRFSGSGSGTDFTLTISSLQAEDVAVYYCQQYYSTPYTFGQGTKVEIKRAA | 0.602 OD492 nm |  | 
SC03-020 (scFv) scFv: AMAEVQLVQSGSEVKKPGESLKISCKGSGYGFITYWIGWVRQMPGKGLEWMGIIYPGDSETRYSPSFQGQVTISADKSINTAYLQWSSLKASDTAIYYCAGGSGISTPMDVWGQGTTVTVSSGTGGSGGTGSGTGGSTDIQMTQSPDSLAVSLGERATINCKSSQKILHSSNNKNYLAWYQQKPGQPPKLLIYWASTRESGVPDRFSGSGSGTDFTLTISSLQAEDVAVYYCQQYYSTPPVFGGGTKVEIKRAA |  |  | OD492 nm [1]: 0.671 OD492 nm
SC03-021 (scFv) scFv: AMAQVQLVQSGTEVKKPGESLKISCKGSGYGFITYWIGWVRQMPGKGLEWMGIIYPGDSETRYSPSFQGQVTISADKSINTAYLQWSSLKASDTAIYYCAGGSGISTPMDVWGQGTTVTVSSGTGGSGGTGSGTGGSTDVVMTQSPDSLAVSLGERATINCKSSQSVLHSSNNKNYLAWYQQKPGQPPKLLIYWASTRQSGVPDRFSGSGSGTDFTLTISSLQAEDVAVYYCQQYYSTPPTFGQGTKVEIKRAA |  |  | OD492 nm [1]: 0.215 OD492 nm
